Measured values reported in patent publication US20200199241A1 (Chugai, published 2020).
Where a chain is given by its changes, count along the chain named. Numbers in names are those of the source.

B1: GpH7-B3 A327M/GpL16-k0 (antibody, human IgG1)
heavy: not shown
light: DIVMTQSPLSLPVTPGEPASISCQASESLVHSNRNTYLHWYLQKPGQSPQLLIYKVSNRFSGVPDRFSGSGSGTDFTLKISRVEAEDVGVYYCSQNTHVPPTFGQGTKVEIE
notes: B3 variant; copies: 2 + 2
B2: GpH7-B3 A327V/GpL16-k0 (antibody, human IgG1)
heavy: not shown
light: B1 light
notes: B3 variant; copies: 2 + 2
B3: GpH7-B3 A327W/GpL16-k0 (antibody, human IgG1)
heavy: not shown
light: B1 light
notes: B3 variant; copies: 2 + 2
B4: GpH7-B3 A327T/GpL16-k0 (antibody, human IgG1)
heavy: not shown
light: B1 light
notes: B3 variant; copies: 2 + 2
B5: GpH7-B3 D270N/GpL16-k0 (antibody, human IgG1)
heavy: not shown
light: B1 light
notes: B3 variant; copies: 2 + 2
B6: GpH7-B3 A327S/GpL16-k0 (antibody, human IgG1)
heavy: not shown
light: B1 light
notes: B3 variant; copies: 2 + 2
B7: GpH7-B3 D270S/GpL16-k0 (antibody, human IgG1)
heavy: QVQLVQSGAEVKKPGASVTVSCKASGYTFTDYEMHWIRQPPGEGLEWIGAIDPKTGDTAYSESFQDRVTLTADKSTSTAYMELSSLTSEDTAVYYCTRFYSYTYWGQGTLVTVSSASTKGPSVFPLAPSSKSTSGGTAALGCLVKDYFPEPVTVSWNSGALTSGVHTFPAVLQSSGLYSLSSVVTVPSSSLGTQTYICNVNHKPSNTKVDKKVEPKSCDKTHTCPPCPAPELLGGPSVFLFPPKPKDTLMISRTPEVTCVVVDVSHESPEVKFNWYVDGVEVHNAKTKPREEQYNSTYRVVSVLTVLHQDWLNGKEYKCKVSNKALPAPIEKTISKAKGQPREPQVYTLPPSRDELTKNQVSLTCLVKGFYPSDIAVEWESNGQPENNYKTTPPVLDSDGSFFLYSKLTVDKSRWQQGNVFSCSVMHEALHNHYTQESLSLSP
light: B1 light
notes: B3 variant; copies: 2 + 2
B8: GpH7-B3 A327Y/GpL16-k0 (antibody, human IgG1)
heavy: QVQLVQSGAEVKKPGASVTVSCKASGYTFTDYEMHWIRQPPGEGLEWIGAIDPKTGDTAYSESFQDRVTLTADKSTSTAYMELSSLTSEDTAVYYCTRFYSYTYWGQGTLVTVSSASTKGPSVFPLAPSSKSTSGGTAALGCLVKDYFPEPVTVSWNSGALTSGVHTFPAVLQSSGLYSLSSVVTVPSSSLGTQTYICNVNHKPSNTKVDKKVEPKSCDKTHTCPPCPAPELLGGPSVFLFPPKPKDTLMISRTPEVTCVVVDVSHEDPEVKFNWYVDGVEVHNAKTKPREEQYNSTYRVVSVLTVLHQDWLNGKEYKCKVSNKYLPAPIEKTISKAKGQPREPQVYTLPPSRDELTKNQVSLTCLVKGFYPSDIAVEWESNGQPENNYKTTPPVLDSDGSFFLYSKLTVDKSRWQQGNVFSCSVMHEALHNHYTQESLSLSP
light: B1 light
notes: B3 variant; copies: 2 + 2
B9: GpH7-B3 I332P/GpL16-k0 (antibody, human IgG1)
heavy: not shown
light: B1 light
notes: B3 variant; copies: 2 + 2
B10: GpH7-B3 D270V/GpL16-k0 (antibody, human IgG1)
heavy: not shown
light: B1 light
notes: B3 variant; copies: 2 + 2
B11: GpH7-B3 A327R/GpL16-k0 (antibody, human IgG1)
heavy: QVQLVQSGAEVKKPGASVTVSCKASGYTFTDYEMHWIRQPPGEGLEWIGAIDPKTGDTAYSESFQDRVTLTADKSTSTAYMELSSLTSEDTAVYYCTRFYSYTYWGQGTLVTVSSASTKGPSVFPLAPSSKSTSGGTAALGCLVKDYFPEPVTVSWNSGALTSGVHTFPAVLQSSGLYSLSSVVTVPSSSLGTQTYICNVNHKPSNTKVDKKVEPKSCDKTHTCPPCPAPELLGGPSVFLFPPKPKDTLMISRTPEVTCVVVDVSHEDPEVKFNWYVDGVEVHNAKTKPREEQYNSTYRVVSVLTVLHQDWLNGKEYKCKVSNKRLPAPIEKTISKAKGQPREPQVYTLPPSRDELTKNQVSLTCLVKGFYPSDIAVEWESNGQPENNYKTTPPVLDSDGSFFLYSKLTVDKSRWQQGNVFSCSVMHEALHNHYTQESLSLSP
light: B1 light
notes: B3 variant; copies: 2 + 2
B12: GpH7-B3 I332R/GpL16-k0 (antibody, human IgG1)
heavy: not shown
light: B1 light
notes: B3 variant; copies: 2 + 2
B13: GpH7-B3 D270F/GpL16-k0 (antibody, human IgG1)
heavy: not shown
light: B1 light
notes: B3 variant; copies: 2 + 2
B14: GpH7-B3 I332K/GpL16-k0 (antibody, human IgG1)
heavy: not shown
light: B1 light
notes: B3 variant; copies: 2 + 2
B15: GpH7-B3 L328G/GpL16-k0 (antibody, human IgG1)
heavy: not shown
light: B1 light
notes: B3 variant; copies: 2 + 2
B16: GpH7-B3 D270A/GpL16-k0 (antibody, human IgG1)
heavy: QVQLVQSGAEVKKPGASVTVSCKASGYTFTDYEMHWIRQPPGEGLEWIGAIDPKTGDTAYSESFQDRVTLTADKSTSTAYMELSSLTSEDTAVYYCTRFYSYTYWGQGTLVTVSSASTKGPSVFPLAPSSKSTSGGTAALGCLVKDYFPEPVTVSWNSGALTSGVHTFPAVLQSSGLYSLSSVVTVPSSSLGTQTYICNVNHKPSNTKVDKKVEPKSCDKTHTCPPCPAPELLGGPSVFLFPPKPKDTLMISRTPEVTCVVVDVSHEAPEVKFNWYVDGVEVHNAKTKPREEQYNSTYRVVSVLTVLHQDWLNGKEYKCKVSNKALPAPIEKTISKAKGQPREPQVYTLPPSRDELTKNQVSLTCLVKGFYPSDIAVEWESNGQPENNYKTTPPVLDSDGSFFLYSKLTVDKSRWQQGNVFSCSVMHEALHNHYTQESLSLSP
light: B1 light
notes: B3 variant; copies: 2 + 2
B17: GpH7-B3 D270H/GpL16-k0 (antibody, human IgG1)
heavy: not shown
light: B1 light
notes: B3 variant; copies: 2 + 2
B18: GpH7-B3 A327Q/GpL16-k0 (antibody, human IgG1)
heavy: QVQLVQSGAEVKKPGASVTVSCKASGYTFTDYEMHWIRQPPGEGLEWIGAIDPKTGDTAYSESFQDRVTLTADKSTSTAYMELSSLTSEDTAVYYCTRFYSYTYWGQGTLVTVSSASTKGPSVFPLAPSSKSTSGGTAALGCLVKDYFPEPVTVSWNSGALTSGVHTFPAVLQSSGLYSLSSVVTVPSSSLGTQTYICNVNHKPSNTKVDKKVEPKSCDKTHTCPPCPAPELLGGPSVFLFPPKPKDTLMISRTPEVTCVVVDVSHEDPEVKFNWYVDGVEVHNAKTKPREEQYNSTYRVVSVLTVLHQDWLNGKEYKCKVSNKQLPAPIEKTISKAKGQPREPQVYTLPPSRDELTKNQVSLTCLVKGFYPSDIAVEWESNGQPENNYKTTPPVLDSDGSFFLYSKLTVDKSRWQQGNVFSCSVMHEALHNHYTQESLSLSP
light: B1 light
notes: B3 variant; copies: 2 + 2
B19: GpH7-B3 A327P/GpL16-k0 (antibody, human IgG1)
heavy: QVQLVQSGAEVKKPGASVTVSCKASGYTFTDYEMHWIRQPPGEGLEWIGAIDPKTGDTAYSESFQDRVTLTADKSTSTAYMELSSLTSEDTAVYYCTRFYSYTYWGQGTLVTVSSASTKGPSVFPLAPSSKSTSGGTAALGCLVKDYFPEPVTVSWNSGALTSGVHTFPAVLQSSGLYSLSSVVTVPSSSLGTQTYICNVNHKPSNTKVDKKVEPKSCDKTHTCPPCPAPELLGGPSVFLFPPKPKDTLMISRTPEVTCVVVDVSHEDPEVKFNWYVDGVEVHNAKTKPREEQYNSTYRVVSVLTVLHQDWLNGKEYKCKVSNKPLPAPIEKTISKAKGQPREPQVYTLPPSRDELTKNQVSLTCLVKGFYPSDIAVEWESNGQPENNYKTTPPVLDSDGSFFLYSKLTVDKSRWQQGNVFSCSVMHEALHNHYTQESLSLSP
light: B1 light
notes: B3 variant; copies: 2 + 2
B20: GpH7-B3 A330S/GpL16-k0 (antibody, human IgG1)
heavy: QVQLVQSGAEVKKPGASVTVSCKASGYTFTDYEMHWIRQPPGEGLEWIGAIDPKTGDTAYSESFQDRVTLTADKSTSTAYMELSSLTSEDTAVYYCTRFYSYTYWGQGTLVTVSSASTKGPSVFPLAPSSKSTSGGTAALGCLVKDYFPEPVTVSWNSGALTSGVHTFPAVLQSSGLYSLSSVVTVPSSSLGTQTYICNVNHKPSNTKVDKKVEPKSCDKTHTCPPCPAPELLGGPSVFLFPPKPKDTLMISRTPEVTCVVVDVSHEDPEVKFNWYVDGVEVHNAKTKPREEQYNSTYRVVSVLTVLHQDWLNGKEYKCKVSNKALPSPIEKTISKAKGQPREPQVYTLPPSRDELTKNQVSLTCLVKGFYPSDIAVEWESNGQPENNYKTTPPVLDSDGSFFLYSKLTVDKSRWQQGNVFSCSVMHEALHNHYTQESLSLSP
light: B1 light
notes: B3 variant; copies: 2 + 2
B21: GpH7-B3 D270L/GpL16-k0 (antibody, human IgG1)
heavy: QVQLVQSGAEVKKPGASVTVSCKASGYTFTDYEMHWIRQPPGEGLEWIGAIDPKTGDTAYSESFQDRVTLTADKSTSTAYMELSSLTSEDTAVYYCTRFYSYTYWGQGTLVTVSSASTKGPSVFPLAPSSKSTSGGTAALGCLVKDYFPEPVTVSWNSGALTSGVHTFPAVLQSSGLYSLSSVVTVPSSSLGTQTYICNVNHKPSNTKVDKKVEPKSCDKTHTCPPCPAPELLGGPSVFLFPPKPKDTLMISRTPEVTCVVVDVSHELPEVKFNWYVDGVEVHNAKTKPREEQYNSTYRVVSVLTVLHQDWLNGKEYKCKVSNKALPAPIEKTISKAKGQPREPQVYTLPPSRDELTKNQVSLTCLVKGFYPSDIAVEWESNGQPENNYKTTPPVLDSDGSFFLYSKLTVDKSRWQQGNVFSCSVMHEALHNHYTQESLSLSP
light: B1 light
notes: B3 variant; copies: 2 + 2
B22: GpH7-B3 D270Q/GpL16-k0 (antibody, human IgG1)
heavy: not shown
light: B1 light
notes: B3 variant; copies: 2 + 2
B23: GpH7-B3 D270I/GpL16-k0 (antibody, human IgG1)
heavy: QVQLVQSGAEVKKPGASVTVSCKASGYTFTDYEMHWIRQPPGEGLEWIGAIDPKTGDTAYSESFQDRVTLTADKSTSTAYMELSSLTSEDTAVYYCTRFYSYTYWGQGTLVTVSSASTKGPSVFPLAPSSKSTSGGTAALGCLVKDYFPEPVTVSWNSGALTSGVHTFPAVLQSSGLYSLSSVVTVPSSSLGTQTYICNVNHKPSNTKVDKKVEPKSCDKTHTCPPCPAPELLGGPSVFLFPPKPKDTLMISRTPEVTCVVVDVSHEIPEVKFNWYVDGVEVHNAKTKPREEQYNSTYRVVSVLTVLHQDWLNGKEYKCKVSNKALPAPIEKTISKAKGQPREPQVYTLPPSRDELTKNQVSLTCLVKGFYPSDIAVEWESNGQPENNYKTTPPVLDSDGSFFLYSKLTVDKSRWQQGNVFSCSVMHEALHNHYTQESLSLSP
light: B1 light
notes: B3 variant; copies: 2 + 2
B24: GpH7-B3 D270Y/GpL16-k0 (antibody, human IgG1)
heavy: not shown
light: B1 light
notes: B3 variant; copies: 2 + 2
B25: GpH7-B3 A330P/GpL16-k0 (antibody, human IgG1)
heavy: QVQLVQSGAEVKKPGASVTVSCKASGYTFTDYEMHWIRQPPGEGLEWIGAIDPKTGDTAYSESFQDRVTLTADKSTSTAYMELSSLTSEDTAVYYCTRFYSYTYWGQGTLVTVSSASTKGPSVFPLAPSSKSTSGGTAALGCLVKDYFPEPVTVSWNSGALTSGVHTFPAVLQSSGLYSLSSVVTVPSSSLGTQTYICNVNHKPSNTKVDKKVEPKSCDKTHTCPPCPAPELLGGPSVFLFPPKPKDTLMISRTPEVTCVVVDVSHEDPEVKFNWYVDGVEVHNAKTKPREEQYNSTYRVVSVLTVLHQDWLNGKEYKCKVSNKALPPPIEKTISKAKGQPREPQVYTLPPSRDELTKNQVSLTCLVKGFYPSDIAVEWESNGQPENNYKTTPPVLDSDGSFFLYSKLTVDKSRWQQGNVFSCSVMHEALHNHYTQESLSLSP
light: B1 light
notes: B3 variant; copies: 2 + 2
B26: GpH7-B3 D270T/GpL16-k0 (antibody, human IgG1)
heavy: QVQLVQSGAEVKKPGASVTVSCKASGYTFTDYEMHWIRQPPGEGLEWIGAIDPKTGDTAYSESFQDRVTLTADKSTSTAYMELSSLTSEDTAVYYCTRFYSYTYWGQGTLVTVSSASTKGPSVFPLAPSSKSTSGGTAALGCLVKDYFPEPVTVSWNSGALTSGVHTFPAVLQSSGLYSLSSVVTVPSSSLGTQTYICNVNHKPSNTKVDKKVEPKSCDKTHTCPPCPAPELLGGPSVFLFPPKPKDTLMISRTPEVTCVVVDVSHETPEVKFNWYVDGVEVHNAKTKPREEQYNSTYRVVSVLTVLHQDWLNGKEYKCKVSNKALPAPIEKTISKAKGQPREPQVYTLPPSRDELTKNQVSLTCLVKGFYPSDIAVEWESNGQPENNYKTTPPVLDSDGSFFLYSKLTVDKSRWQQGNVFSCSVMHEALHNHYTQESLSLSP
light: B1 light
notes: B3 variant; copies: 2 + 2
B27: GpH7-B3 D270M/GpL16-k0 (antibody, human IgG1)
heavy: not shown
light: B1 light
notes: B3 variant; copies: 2 + 2

The binders below were run against T1, human FcγRIa (human, UniProt P12314 16-292, limits assumed) (assay: SPR, captured antibody;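 note: antibody captured on a sensor chip, Fcγ receptor flowed over at 25 °C, receptor binding normalized to the captured antibody amount and expressed relative to the reference antibody ×100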).
T1 construct: also called FcgRIa; hFcgRIa
Protocol: (§1) Interaction between each modified antibody and Fcγ receptor prepared in the manner described above was analyzed using the BIACORE™ T100 surface plasmon resonance system (GE Healthcare), BIACORE™ T200 surface plasmon resonance system (GE Healthcare), BIACORE™ A100 surface plasmon resonance system or BIACORE™ 4000 surface plasmon resonance system. HBS-EP+ (GE Healthcare) was used for the running buffer, and measurements were carried out at 25° C. The chips used were chips in which antigen peptides, Protein A (Thermo Scientific), Protein A/G (Thermo Scientific) or Protein L (ACTIGEN® protein (Alltech or BioVision) were immobilized on the Series S Sensor Chip CMS (GE Healthcare) or Series S Sensor Chip CM4 (GE Healthcare) by amine coupling, or chips in which preliminarily biotinylated antigen peptides were allowed to interact and then immobilized on the Series S Sensor Chip SA (certified) (GE Healthcare). The target antibodies were captured on these sensor chips, Fcγ receptor diluted with the running buffer was allowed to interact, followed by measurement of the amount of bound antibody. The amounts bound were compared between antibodies. However, since the amount of Fcγ receptor bound depends on the amount of captured antibody, the values used for comparison were first corrected by dividing the amount of Fcγ receptor bound by the captured amount of each antibody. Through reaction with 10 mM glycine-HCl at pH 1.5, the sensor chips were regenerated by washing off antibody captured on the sensor chips and used repeatedly.
(§2) Binding strength was evaluated according to the following method based on the results of analyzing the interaction with each FcγR. […] That value was then further multiplied by 100, and the resulting value was used as an indicator of relative binding activity to each FcγR.

| Binder | relative binding activity |
| --- | --- |
| B1 | 95 % of GpH7-B3/GpL16-k0 |
| B2 | 97 % of GpH7-B3/GpL16-k0 |
| B3 | 100 % of GpH7-B3/GpL16-k0 |
| B4 | 64 % of GpH7-B3/GpL16-k0 |
| B5 | 68 % of GpH7-B3/GpL16-k0 |
| B6 | 88 % of GpH7-B3/GpL16-k0 |
| B7 | 73 % of GpH7-B3/GpL16-k0 |
| B8 | 97 % of GpH7-B3/GpL16-k0 |
| B9 | 100 % of GpH7-B3/GpL16-k0 |
| B10 | 84 % of GpH7-B3/GpL16-k0 |
| B11 | 51 % of GpH7-B3/GpL16-k0 |
| B12 | 95 % of GpH7-B3/GpL16-k0 |
| B13 | 88 % of GpH7-B3/GpL16-k0 |
| B14 | 77 % of GpH7-B3/GpL16-k0 |
| B15 | 92 % of GpH7-B3/GpL16-k0 |
| B16 | 87 % of GpH7-B3/GpL16-k0 |
| B17 | 70 % of GpH7-B3/GpL16-k0 |
| B18 | 94 % of GpH7-B3/GpL16-k0 |
| B19 | 95 % of GpH7-B3/GpL16-k0 |
| B20 | 58 % of GpH7-B3/GpL16-k0 |
| B21 | 90 % of GpH7-B3/GpL16-k0 |
| B22 | 82 % of GpH7-B3/GpL16-k0 |
| B23 | 88 % of GpH7-B3/GpL16-k0 |
| B24 | 78 % of GpH7-B3/GpL16-k0 |
| B25 | 87 % of GpH7-B3/GpL16-k0 |
| B26 | 81 % of GpH7-B3/GpL16-k0 |
| B27 | 90 % of GpH7-B3/GpL16-k0 |

Target: T2, human FcγRIIa(R) (human, UniProt P12318 36-217)
T2 construct: also called FcgRIIaR; hFcgRIIa(R)
T2 chain: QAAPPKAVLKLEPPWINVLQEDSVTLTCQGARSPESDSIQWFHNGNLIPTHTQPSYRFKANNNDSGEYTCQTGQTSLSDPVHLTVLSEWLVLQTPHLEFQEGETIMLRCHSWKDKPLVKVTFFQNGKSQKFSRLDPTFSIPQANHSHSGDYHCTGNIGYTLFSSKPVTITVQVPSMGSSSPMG
Assay: SPR, captured antibody;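 note: antibody captured on a sensor chip, Fcγ receptor flowed over at 25 °C, receptor binding normalized to the captured antibody amount and expressed relative to the reference antibody ×100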
Protocol: as §1, §2

| Binder | relative binding activity |
| --- | --- |
| B1 | 38 % of GpH7-B3/GpL16-k0 |
| B2 | 46 % of GpH7-B3/GpL16-k0 |
| B3 | 34 % of GpH7-B3/GpL16-k0 |
| B4 | 27 % of GpH7-B3/GpL16-k0 |
| B5 | -1 % of GpH7-B3/GpL16-k0 |
| B6 | 59 % of GpH7-B3/GpL16-k0 |
| B7 | 0 % of GpH7-B3/GpL16-k0 |
| B8 | 17 % of GpH7-B3/GpL16-k0 |
| B9 | 34 % of GpH7-B3/GpL16-k0 |
| B10 | 1 % of GpH7-B3/GpL16-k0 |
| B11 | -11 % of GpH7-B3/GpL16-k0 |
| B12 | 28 % of GpH7-B3/GpL16-k0 |
| B13 | 5 % of GpH7-B3/GpL16-k0 |
| B14 | 12 % of GpH7-B3/GpL16-k0 |
| B15 | 66 % of GpH7-B3/GpL16-k0 |
| B16 | 3 % of GpH7-B3/GpL16-k0 |
| B17 | 0 % of GpH7-B3/GpL16-k0 |
| B18 | 34 % of GpH7-B3/GpL16-k0 |
| B19 | 14 % of GpH7-B3/GpL16-k0 |
| B20 | 0 % of GpH7-B3/GpL16-k0 |
| B21 | 6 % of GpH7-B3/GpL16-k0 |
| B22 | 2 % of GpH7-B3/GpL16-k0 |
| B23 | 3 % of GpH7-B3/GpL16-k0 |
| B24 | -2 % of GpH7-B3/GpL16-k0 |
| B25 | 42 % of GpH7-B3/GpL16-k0 |
| B26 | 1 % of GpH7-B3/GpL16-k0 |
| B27 | 7 % of GpH7-B3/GpL16-k0 |

What follows are binders tested against T3, human FcγRIIb (human, UniProt P31994 43-217, limits assumed) (assay: SPR, captured antibody;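 note: antibody captured on a sensor chip, Fcγ receptor flowed over at 25 °C, receptor binding normalized to the captured antibody amount and expressed relative to the reference antibody ×100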).
T3 construct: also called FcgRIIb; hFcgRIIb
T3 sequence: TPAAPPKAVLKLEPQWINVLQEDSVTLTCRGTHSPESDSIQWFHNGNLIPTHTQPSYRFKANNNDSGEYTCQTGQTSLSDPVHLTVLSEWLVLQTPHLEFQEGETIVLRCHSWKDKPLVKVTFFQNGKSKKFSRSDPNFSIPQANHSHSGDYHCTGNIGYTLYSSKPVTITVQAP
Protocol: as §1, §2

| Binder | relative binding activity |
| --- | --- |
| B1 | 40 % of GpH7-B3/GpL16-k0 |
| B2 | 43 % of GpH7-B3/GpL16-k0 |
| B3 | 34 % of GpH7-B3/GpL16-k0 |
| B4 | 37 % of GpH7-B3/GpL16-k0 |
| B5 | -2 % of GpH7-B3/GpL16-k0 |
| B6 | 62 % of GpH7-B3/GpL16-k0 |
| B7 | -1 % of GpH7-B3/GpL16-k0 |
| B8 | 18 % of GpH7-B3/GpL16-k0 |
| B9 | 41 % of GpH7-B3/GpL16-k0 |
| B10 | 3 % of GpH7-B3/GpL16-k0 |
| B11 | -3 % of GpH7-B3/GpL16-k0 |
| B12 | 23 % of GpH7-B3/GpL16-k0 |
| B13 | 5 % of GpH7-B3/GpL16-k0 |
| B14 | 27 % of GpH7-B3/GpL16-k0 |
| B15 | 62 % of GpH7-B3/GpL16-k0 |
| B16 | 5 % of GpH7-B3/GpL16-k0 |
| B17 | -2 % of GpH7-B3/GpL16-k0 |
| B18 | 29 % of GpH7-B3/GpL16-k0 |
| B19 | 18 % of GpH7-B3/GpL16-k0 |
| B20 | -3 % of GpH7-B3/GpL16-k0 |
| B21 | 3 % of GpH7-B3/GpL16-k0 |
| B22 | 0 % of GpH7-B3/GpL16-k0 |
| B23 | 1 % of GpH7-B3/GpL16-k0 |
| B24 | -2 % of GpH7-B3/GpL16-k0 |
| B25 | 39 % of GpH7-B3/GpL16-k0 |
| B26 | -2 % of GpH7-B3/GpL16-k0 |
| B27 | 6 % of GpH7-B3/GpL16-k0 |

The binders below were run against T4, human FcγRIIa(H) (human, UniProt P12318 36-217) (assay: SPR, captured antibody;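 note: antibody captured on a sensor chip, Fcγ receptor flowed over at 25 °C, receptor binding normalized to the captured antibody amount and expressed relative to the reference antibody ×100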).
T4 construct: also called FcgRIIaH; hFcgRIIa(H)
T4 sequence: T2 chain with R133H
Protocol: as §1, §2

| Binder | relative binding activity |
| --- | --- |
| B1 | 55 % of GpH7-B3/GpL16-k0 |
| B2 | 17 % of GpH7-B3/GpL16-k0 |
| B3 | 21 % of GpH7-B3/GpL16-k0 |
| B4 | 12 % of GpH7-B3/GpL16-k0 |
| B5 | 34 % of GpH7-B3/GpL16-k0 |
| B6 | 51 % of GpH7-B3/GpL16-k0 |
| B7 | 49 % of GpH7-B3/GpL16-k0 |
| B8 | 26 % of GpH7-B3/GpL16-k0 |
| B9 | 26 % of GpH7-B3/GpL16-k0 |
| B10 | 37 % of GpH7-B3/GpL16-k0 |
| B11 | -2 % of GpH7-B3/GpL16-k0 |
| B12 | 70 % of GpH7-B3/GpL16-k0 |
| B13 | 62 % of GpH7-B3/GpL16-k0 |
| B14 | 59 % of GpH7-B3/GpL16-k0 |
| B15 | 52 % of GpH7-B3/GpL16-k0 |
| B16 | 66 % of GpH7-B3/GpL16-k0 |
| B17 | 53 % of GpH7-B3/GpL16-k0 |
| B18 | 47 % of GpH7-B3/GpL16-k0 |
| B19 | 16 % of GpH7-B3/GpL16-k0 |
| B20 | 0 % of GpH7-B3/GpL16-k0 |
| B21 | 61 % of GpH7-B3/GpL16-k0 |
| B22 | 78 % of GpH7-B3/GpL16-k0 |
| B23 | 43 % of GpH7-B3/GpL16-k0 |
| B24 | 53 % of GpH7-B3/GpL16-k0 |
| B25 | 25 % of GpH7-B3/GpL16-k0 |
| B26 | 38 % of GpH7-B3/GpL16-k0 |
| B27 | 57 % of GpH7-B3/GpL16-k0 |
